Data reported in the supplement of paper PMC5998384.

Tests used:
HeLa Kyoto [1] = test: thermal stability score vs G1/S (z-score of summed log2 fold changes over temperatures); higher = more thermally stable than in G1/S
HeLa Kyoto [2] = test: solubility change mitosis vs G1/S (difference of NP-40 vs SDS log2 ratios) (log2 ratio difference); higher = more soluble in mitosis
HeLa Kyoto [3] = test: solubility in G1/S (NP-40 vs SDS abundance) (log2 ratio); higher = more soluble; details: cell cycle stage: G1/S
HeLa Kyoto [4] = test: melting temperature (median over replicates), in situ; higher = more thermally stable
[5] = cell cycle stage: early G1 (4.5 h after nocodazole release)
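Wherever melting temperature (median over replicates), in situ is given: HeLa Kyoto cells synchronized by double thymidine or nocodazole block, proteins quantified by TMT10plex mass spectrometry, three independent biological replicates.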
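Wherever solubility change mitosis vs G1/S (difference of NP-40 vs SDS log2 ratios) is given: synchronized HeLa Kyoto cells (double thymidine block for G1/S, nocodazole release for mitosis), protein amounts in NP-40 versus SDS lysates quantified by mass spectrometry, three biological replicates.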
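Wherever solubility in G1/S (NP-40 vs SDS abundance) is given: HeLa Kyoto cells arrested at G1/S by double thymidine block, proteins quantified by TMT10plex mass spectrometry in mild NP-40 versus SDS extracts, three biological replicates.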
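Wherever thermal stability score vs G1/S (z-score of summed log2 fold changes over temperatures) is given: synchronized HeLa Kyoto cells, proteins quantified by TMT10plex mass spectrometry, three biological replicates, mitosis taken 0.5 h after nocodazole release, G1/S directly after double thymidine block.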

| Substance | thermal stability score (HeLa Kyoto [1]; [5]) | thermal stability score (HeLa Kyoto [1]; cell cycle stage: mitosis) | solubility change mitosis (log2) (HeLa Kyoto [2]) | solubility in G1/S (log2) (HeLa Kyoto [3]) | melting temperature (HeLa Kyoto [4]; cell cycle stage: G1/S) [°C] | melting temperature (HeLa Kyoto [4]; cell cycle stage: mitosis) [°C] |
| --- | --- | --- | --- | --- | --- | --- |
| MADPAAPTPAAPAPAQAPAPAPEAVPAPAAAPVPAPAPASDSASGPSSDSGPEAGSQRLLFSHDLVSGRYRGSVHFGLVRLIHGEDSDSEGEEEGRGSSGCSEAGGAGHEEGRASPLRRGYVRVQWYPEGVKQHVKETKLKLEDRSVVPRDVVRHMRSTDSQCGTVIDVNIDCAVKLIGTNCIIYPVNSKDLQHIWPFMYGDYIAYDCWLGKVYDLKNQIILKLSNGARCSMNTEDGAKLYDVCPHVSDSGLFFDDSYGFYPGQVLIGPAKIFSSVQWLSGVKPVLSTKSKFRVVVEEVQVVELKVTWITKSFCPGGTDSVSPPPSVITQENLGRVKRLGCFDHAQRQLGERCLYVFPAKVEPAKIAWECPEKNCAQGEGSMAKKVKRLLKKQVVRIMSCSPDTQCSRDHSMEDPDKKGESKTKSEAESASPEETPDGSASPVEMQDEGAEEPHEAGEQLPPFLLKEGRDDRLHSAEQDADDEAADDTDDTSSVTSSASSTTSSQSGSGTSRKKSIPLSIKNLKRKHKRKKNKITRDFKPGDRVAVEVVTTMTSADVMWQDGSVECNIRSNDLFPVHHLDNNEFCPGDFVVDKRVQSCPDPAVYGVVQSGDHIGRTCMVKWFKLRPSGDDVELIGEEEDVSVYDIADHPDFRFRTTDIVIRIGNTEDGAPHKEDEPSVGQVARVDVSSKVEVVWADNSKTIILPQHLYNIESEIEESDYDSVEGSTSGASSDEWEDDSDSWETDNGLVEDEHPKIEEPPIPPLEQPVAPEDKGVVISEEAATAAVQGAVAMAAPMAGLMEKAGKDGPPKSFRELKEAIKILESLKNMTVEQLLTGSPTSPTVEPEKPTREKKFLDDIKKLQENLKKTLDNVAIVEEEKMEAVPDVERKEDKPEGQSPVKAEWPSETPVLCQQCGGKPGVTFTSAKGEVFSVLEFAPSNHSFKKIEFQPPEAKKFFSTVRKEMALLATSLPEGIMVKTFEDRMDLFSALIKGPTRTPYEDGLYLFDIQLPNIYPAVPPHFCYLSQCSGRLNPNLYDNGKVCVSLLGTWIGKGTERWTSKSSLLQVLISIQGLILVNEPYYNEAGFDSDRGLQEGYENSRCYNEMALIRVVQSMTQLVRRPPEVFEQEIRQHFSTGGWRLVNRIESWLETHALLEKAQALPNGVPKASSSPEPPAVAELSDSGQQEPEDGGPAPGEASQGSDSEGGAQGLASASRDHTDQTSETAPDASVPPSVKPKKRRKSYRSFLPEKSGYPDIGFPLFPLSKGFIKSIRGVLTQFRAALLEAGMPECTEDK [UBE2O] | -1.41 | -1.46 | -0.0785 | -0.0555 | 51.7 | 51.1 |
| MPRAPAPLYACLLGLCALLPRLAGLNICTSGSATSCEECLLIHPKCAWCSKEDFGSPRSITSRCDLRANLVKNGCGGEIESPASSFHVLRSLPLSSKGSGSAGWDVIQMTPQEIAVNLRPGDKTTFQLQVRQVEDYPVDLYYLMDLSLSMKDDLDNIRSLGTKLAEEMRKLTSNFRLGFGSFVDKDISPFSYTAPRYQTNPCIGYKLFPNCVPSFGFRHLLPLTDRVDSFNEEVRKQRVSRNRDAPEGGFDAVLQAAVCKEKIGWRKDALHLLVFTTDDVPHIALDGKLGGLVQPHDGQCHLNEANEYTASNQMDYPSLALLGEKLAENNINLIFAVTKNHYMLYKNFTALIPGTTVEILDGDSKNIIQLIINAYNSIRSKVELSVWDQPEDLNLFFTATCQDGVSYPGQRKCEGLKIGDTASFEVSLEARSCPSRHTEHVFALRPVGFRDSLEVGVTYNCTCGCSVGLEPNSARCNGSGTYVCGLCECSPGYLGTRCECQDGENQSVYQNLCREAEGKPLCSGRGDCSCNQCSCFESEFGKIYGPFCECDNFSCARNKGVLCSGHGECHCGECKCHAGYIGDNCNCSTDISTCRGRDGQICSERGHCLCGQCQCTEPGAFGEMCEKCPTCPDACSTKRDCVECLLLHSGKPDNQTCHSLCRDEVITWVDTIVKDDQEAVLCFYKTAKDCVMMFTYVELPSGKSNLTVLREPECGNTPNAMTILLAVVGSILLVGLALLAIWKLLVTIHDRREFAKFQSERSRARYEMASNPLYRKPISTHTVDFTFNKFNKSYNGTVD [ITGB5] | 0.876 | 3.15 | 0.0246 | -0.15 | 56 | 56.7 |
| MASIMEGPLSKWTNVMKGWQYRWFVLDYNAGLLSYYTSKDKMMRGSRRGCVRLRGAVIGIDDEDDSTFTITVDQKTFHFQARDADEREKWIHALEETILRHTLQLQGLDSGFVPSVQDFDKKLTEADAYLQILIEQLKLFDDKLQNCKEDEQRKKIETLKETTNSMVESIKHCIVLLQIAKDQSNAEKHADGMISTINPVDAIYQPSPLEPVISTMPSQTVLPPEPVQLCKSEQRPSSLPVGPVLATLGHHQTPTPNSTGSGHSPPSSSLTSPSHVNLSPNTVPEFSYSSSEDEFYDADEFHQSGSSPKRLIDSSGSASVLTHSSSGNSLKRPDTTESLNSSLSNGTSDADLFDSHDDRDDDAEAGSVEEHKSVIMHLLSQVRLGMDLTKVVLPTFILERRSLLEMYADFFAHPDLFVSISDQKDPKDRMVQVVKWYLSAFHAGRKGSVAKKPYNPILGEIFQCHWTLPNDTEENTELVSEGPVPWVSKNSVTFVAEQVSHHPPISAFYAECFNKKIQFNAHIWTKSKFLGMSIGVHNIGQGCVSCLDYDEHYILTFPNGYGRSILTVPWVELGGECNINCSKTGYSANIIFHTKPFYGGKKHRITAEIFSPNDKKSFCSIEGEWNGVMYAKYATGENTVFVDTKKLPIIKKKVRKLEDQNEYESRSLWKDVTFNLKIRDIDAATEAKHRLEERQRAEARERKEKEIQWETRLFHEDGECWVYDEPLLKRLGAAKH [OSBPL9] | 0.00752 | 0.954 | -0.142 | -0.0574 | 48.7 | 49.2 |
| MDALEDYVWPRATSELILLPVTGLECVGDRLLAGEGPDVLVYSLDFGGHLRMIKRVQNLLGHYLIHGFRVRPEPNGDLDLEAMVAVFGSKGLRVVKISWGQGHFWELWRSGLWNMSDWIWDARWLEGNIALALGHNSVVLYDPVVGCILQEVPCTDRCTLSSACLIGDAWKELTIVAGAVSNQLLVWYPATALADNKPVAPDRRISGHVGIIFSMSYLESKGLLATASEDRSVRIWKVGDLRVPGGRVQNIGHCFGHSARVWQVKLLENYLISAGEDCVCLVWSHEGEILQAFRGHQGRGIRAIAAHERQAWVITGGDDSGIRLWHLVGRGYRGLGVSALCFKSRSRPGTLKAVTLAGSWRLLAVTDTGALYLYDVEVKCWEQLLEDKHFQSYCLLEAAPGPEGFGLCAMANGEGRVKVVPINTPTAAVDQTLFPGKVHSLSWALRGYEELLLLASGPGGVVACLEISAAPSGKAIFVKERCRYLLPPSKQRWHTCSAFLPPGDFLVCGDRRGSVLLFPSRPGLLKDPGVGGKARAGAGAPVVGSGSSGGGNAFTGLGPVSTLPSLHGKQGVTSVTCHGGYVYTTGRDGAYYQLFVRDGQLQPVLRQKSCRGMNWLAGLRIVPDGSMVILGFHANEFVVWNPRSHEKLHIVNCGGGHRSWAFSDTEAAMAFAYLKDGDVMLYRALGGCTRPHVILREGLHGREITCVKRVGTITLGPEYGVPSFMQPDDLEPGSEGPDLTDIVITCSEDTTVCVLALPTTTGSAHALTAVCNHISSVRAVAVWGIGTPGGPQDPQPGLTAHVVSAGGRAEMHCFSIMVTPDPSTPSRLACHVMHLSSHRLDEYWDRQRNRHRMVKVDPETRYMSLAVCELDQPGLGPLVAAACSDGAVRLFLLQDSGRILQLLAETFHHKRCVLKVHSFTHEAPNQRRRLLLCSAATDGSLAFWDLTTMLDHDSTVLEPPVDPGLPYRLGTPSLTLQAHSCGINSLHTLPTREGHHLVASGSEDGSLHVFVLAVEMLQLEEAVGEAGLVPQLRVLEEYSVPCAHAAHVTGLKILSPSIMVSASIDQRLTFWRLGHGEPTFMNSTVFHVPDVADMDCWPVSPEFGHRCALGGQGLEVYNWYD [WDR6] | -0.588 | 0.0649 | -0.023 | -0.611 | 51.5 | 51.6 |
| MRPEPGGCCCRRTVRANGCVANGEVRNGYVRSSAAAAAAAAAGQIHHVTQNGGLYKRPFNEAFEETPMLVAVLTYVGYGVLTLFGYLRDFLRYWRIEKCHHATEREEQKDFVSLYQDFENFYTRNLYMRIRDNWNRPICSVPGARVDIMERQSHDYNWSFKYTGNIIKGVINMGSYNYLGFARNTGSCQEAAAKVLEEYGAGVCSTRQEIGNLDKHEELEELVARFLGVEAAMAYGMGFATNSMNIPALVGKGCLILSDELNHASLVLGARLSGATIRIFKHNNMQSLEKLLKDAIVYGQPRTRRPWKKILILVEGIYSMEGSIVRLPEVIALKKKYKAYLYLDEAHSIGALGPTGRGVVEYFGLDPEDVDVMMGTFTKSFGASGGYIGGKKELIDYLRTHSHSAVYATSLSPPVVEQIITSMKCIMGQDGTSLGKECVQQLAENTRYFRRRLKEMGFIIYGNEDSPVVPLMLYMPAKIGAFGREMLKRNIGVVVVGFPATPIIESRARFCLSAAHTKEILDTALKEIDEVGDLLQLKYSRHRLVPLLDRPFDETTYEETED [SPTLC2] | 0.665 | -0.386 | -0.16 | 0.00928 | 53 | 52.7 |
| LAMB2 | 2.43 | 3.75 | -0.116 | 0.034 | 53 | 53.9 |
| ZWILCH | 0.346 | 0.376 | -0.229 | 0.0446 | 50.9 | 50.2 |
| MRTAGRDPVPRRSPRWRRAVPLCETSAGRRVTQLRGDDLRRPATMKGKERSPVKAKRSRGGEDSTSRGERSKKLGGSGGSNGSSSGKTDSGGGSRRSLHLDKSSSRGGSREYDTGGGSSSSRLHSYSSPSTKNSSGGGESRSSSRGGGGESRSSGAASSAPGGGDGAEYKTLKISELGSQLSDEAVEDGLFHEFKRFGDVSVKISHLSGSGSGDERVAFVNFRRPEDARAAKHARGRLVLYDRPLKIEAVYVSRRRSRSPLDKDTYPPSASVVGASVGGHRHPPGGGGGQRSLSPGGAALGYRDYRLQQLALGRLPPPPPPPLPRDLERERDYPFYERVRPAYSLEPRVGAGAGAAPFREVDEISPEDDQRANRTLFLGNLDITVTESDLRRAFDRFGVITEVDIKRPSRGQTSTYGFLKFENLDMSHRAKLAMSGKIIIRNPIKIGYGKATPTTRLWVGGLGPWVPLAALAREFDRFGTIRTIDYRKGDSWAYIQYESLDAAHAAWTHMRGFPLGGPDRRLRVDFADTEHRYQQQYLQPLPLTHYELVTDAFGHRAPDPLRGARDRTPPLLYRDRDRDLYPDSDWVPPPPPVRERSTRTAATSVPAYEPLDSLDRRRDGWSLDRDRGDRDLPSSRDQPRKRRLPEESGGRHLDRSPESDRPRKRHCAPSPDRSPELSSSRDRYNSDNDRSSRLLLERPSPIRDRRGSLEKSQGDKRDRKNSASAERDRKHRTTAPTEGKSPLKKEDRSDGSAPSTSTASSKLKSPSQKQDGGTAPVASASPKLCLAWQGMLLLKNSNFPSNMHLLQGDLQVASSLLVEGSTGGKVAQLKITQRLRLDQPKLDEVTRRIKVAGPNGYAILLAVPGSSDSRSSSSSAASDTATSTQRPLRNLVSYLKQKQAAGVISLPVGGNKDKENTGVLHAFPPCEFSQQFLDSPAKALAKSEEDYLVMIIVRGFGFQIGVRYENKKRENLALTLL [RBM15] | 2.61 | 6.38 | 0.598 | -0.606 | 46.7 | 48.7 |
